Data published in patent US20170254813A1 (VENTANA MEDICAL SYSTEMS, published 2017).
Each block holds one binder with its values, some of them ahead of it.

How the values were obtained:
β-catenin = target: T1, β-catenin (UniProt P35222 2-781); test: in situ proximity assay (chemical ligation and hapten transfer) on FFPE tonsil and skin sections
T1 construct: Endogenous protein in tissue section; also called beta-catenin
T1 sequence (looked up): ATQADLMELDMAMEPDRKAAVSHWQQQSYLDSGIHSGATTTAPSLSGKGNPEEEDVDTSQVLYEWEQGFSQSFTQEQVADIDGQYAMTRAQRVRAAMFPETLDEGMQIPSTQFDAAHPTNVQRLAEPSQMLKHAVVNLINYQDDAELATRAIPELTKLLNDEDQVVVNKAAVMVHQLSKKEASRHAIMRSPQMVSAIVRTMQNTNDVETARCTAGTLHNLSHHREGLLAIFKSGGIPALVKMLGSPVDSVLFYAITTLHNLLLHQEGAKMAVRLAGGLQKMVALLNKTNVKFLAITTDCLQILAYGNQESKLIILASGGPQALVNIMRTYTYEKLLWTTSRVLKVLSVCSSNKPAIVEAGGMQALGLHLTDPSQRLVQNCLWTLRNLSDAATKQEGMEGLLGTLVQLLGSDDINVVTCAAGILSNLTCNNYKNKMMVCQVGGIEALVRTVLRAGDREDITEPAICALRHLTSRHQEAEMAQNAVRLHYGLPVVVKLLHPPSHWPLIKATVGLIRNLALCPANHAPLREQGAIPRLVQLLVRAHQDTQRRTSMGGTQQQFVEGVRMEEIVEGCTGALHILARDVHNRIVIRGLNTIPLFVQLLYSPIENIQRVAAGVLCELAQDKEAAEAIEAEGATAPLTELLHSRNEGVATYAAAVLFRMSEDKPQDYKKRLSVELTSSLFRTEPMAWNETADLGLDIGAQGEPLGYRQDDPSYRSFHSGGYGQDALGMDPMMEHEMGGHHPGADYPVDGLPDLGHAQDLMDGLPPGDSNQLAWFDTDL
Method: (§1) IHC staining was performed on a VENTANA BenchMark XT automated slide-processing system (Ventana). For all IHC staining, FFPE sections were first deparaffinization with EZ Prep solution (Ventana) and washed with reaction buffer. Antigen retrieval was carried out in Cell Conditioning 1 (Ventana) (100° C.; 92 minutes) and again washed with 1× reaction buffer (Ventana). […] After thorough wash with reaction buffer, secondary antibody conjugates of GAR-PEG₈-SS-HA-N₃ and GAM-PEG₄-CCH (100 μL of 10 μg/mL each) were added to slides and incubated at 37° C. for 32 minutes. The slides were washed in reaction buffer and water before a drop of 100 μL of HEPES buffer (0.15 M, pH 7.4) was added to the slides. To initiate the azide-acetylene click reaction, 100 μL of Cu(I) catalyst solution was added onto the slide. One working example of the Cu(I) solution contained 0.6 mM CuSO₄, 3 mM THPTA, 10 mM HEPES (pH=7.4), 40% DMSO (v/v) and 4 mM of sodium ascorbate (freshly made and added to CuSO₄ immediately before adding to slide). The click reaction was allowed to proceed for 32 minutes and the slides were washed thoroughly in reaction buffer. […] For chromogenic based detection using diaminobenzidine (DAB), ready-to-use solutions of DAB, H₂O₂ and Copper from an [sequence] […]

PMS2 = target: T2, PMS2 (UniProt P54278 1-862); test: in situ proximity assay on Hela cell xenograft sections
T2 construct: Endogenous protein of Hela cells in xenograft
T2 sequence (looked up): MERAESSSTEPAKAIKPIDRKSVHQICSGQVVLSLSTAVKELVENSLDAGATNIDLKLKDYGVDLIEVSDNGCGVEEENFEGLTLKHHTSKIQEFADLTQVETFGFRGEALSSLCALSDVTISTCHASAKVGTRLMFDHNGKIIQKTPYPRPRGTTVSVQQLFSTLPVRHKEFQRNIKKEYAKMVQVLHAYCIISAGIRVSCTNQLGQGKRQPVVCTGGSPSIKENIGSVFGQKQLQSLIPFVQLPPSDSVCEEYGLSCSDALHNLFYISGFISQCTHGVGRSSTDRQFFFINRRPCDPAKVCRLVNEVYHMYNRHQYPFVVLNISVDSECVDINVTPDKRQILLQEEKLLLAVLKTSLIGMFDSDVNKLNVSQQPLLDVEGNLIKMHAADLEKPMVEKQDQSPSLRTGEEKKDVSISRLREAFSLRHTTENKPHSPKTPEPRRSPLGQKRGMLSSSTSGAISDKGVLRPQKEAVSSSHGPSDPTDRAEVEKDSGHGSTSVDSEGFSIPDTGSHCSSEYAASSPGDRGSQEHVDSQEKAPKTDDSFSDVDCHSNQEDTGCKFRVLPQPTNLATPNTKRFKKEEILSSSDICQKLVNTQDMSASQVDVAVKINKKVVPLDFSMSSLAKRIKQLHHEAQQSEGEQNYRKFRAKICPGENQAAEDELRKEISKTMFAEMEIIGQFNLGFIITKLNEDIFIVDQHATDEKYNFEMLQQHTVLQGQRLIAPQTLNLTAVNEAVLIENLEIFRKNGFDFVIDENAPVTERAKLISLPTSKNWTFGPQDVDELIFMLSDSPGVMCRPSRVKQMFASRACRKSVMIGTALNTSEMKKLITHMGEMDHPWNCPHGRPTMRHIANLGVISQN

[1] = target: T3, CD21 (complement receptor type 2) (UniProt P20023 21-1033, limits assumed); test: in situ proximity assay on FFPE normal tonsil sections
T3 construct: Endogenous protein in tissue section
T3 sequence (looked up): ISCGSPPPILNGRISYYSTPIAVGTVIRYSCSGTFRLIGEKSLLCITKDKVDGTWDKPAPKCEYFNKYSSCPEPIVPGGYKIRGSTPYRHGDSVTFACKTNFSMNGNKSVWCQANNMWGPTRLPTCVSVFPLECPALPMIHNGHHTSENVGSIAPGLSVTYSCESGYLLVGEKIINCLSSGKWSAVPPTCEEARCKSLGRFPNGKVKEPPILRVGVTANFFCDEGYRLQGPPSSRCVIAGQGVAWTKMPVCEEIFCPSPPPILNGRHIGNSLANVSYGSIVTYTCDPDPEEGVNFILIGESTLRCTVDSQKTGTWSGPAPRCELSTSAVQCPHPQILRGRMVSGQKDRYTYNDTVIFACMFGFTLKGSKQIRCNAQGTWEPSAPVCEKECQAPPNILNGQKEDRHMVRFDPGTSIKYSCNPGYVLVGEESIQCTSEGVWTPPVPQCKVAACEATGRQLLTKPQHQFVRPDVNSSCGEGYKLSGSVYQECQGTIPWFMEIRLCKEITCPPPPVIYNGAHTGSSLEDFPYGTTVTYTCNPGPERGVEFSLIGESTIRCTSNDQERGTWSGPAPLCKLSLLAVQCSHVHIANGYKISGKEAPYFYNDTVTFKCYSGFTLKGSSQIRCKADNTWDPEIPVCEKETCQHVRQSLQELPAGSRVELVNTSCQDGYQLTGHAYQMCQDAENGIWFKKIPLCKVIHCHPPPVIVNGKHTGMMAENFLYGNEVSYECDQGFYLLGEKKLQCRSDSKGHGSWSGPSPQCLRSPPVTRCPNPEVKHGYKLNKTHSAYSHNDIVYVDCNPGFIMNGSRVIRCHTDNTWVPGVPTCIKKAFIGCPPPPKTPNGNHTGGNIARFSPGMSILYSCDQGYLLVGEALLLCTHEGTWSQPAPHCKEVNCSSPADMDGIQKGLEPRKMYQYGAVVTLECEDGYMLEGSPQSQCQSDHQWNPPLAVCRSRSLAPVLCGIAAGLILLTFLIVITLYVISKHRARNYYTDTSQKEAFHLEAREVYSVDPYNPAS
Method: as §1

binding result (β-catenin): binds
B1: E-cadherin (other, UniProt P12830 155-882, looked up)
chain: DWVIPPISCPENEKGPFPKNLVQIKSNKDKEGKVFYSITGQGADTPPVGVFIIERETGWLKVTEPLDRERIATYTLFSHAVSSNGNAVEDPMEILITVTDQNDNKPEFTQEVFKGSVMEGALPGTSVMEVTATDADDDVNTYNAAIAYTILSQDPELPDKNMFTINRNTGVISVVTTGLDRESFPTYTLVVQAADLQGEGLSTTATAVITVTDTNDNPPIFNPTTYKGQVPENEANVVITTLKVTDADAPNTPAWEAVYTILNDDGGQFVVTTNPVNNDGILKTAKGLDFEAKQQYILHVAVTNVVPFEVSLTTSTATVTVDVLDVNEAPIFVPPEKRVEVSEDFGVGQEITSYTAQEPDTFMEQKITYRIWRDTANWLEINPDTGAISTRAELDREDFEHVKNSTYTALIIATDNGSPVATGTGTLLLILSDVNDNAPIPEPRTIFFCERNPKPQVINIIDADLPPNTSPFTAELTHGASANWTIQYNDPTQESIILKPKMALEVGDYKINLKLMDNQNKDQVTTLEVSVCDCEGAAGVCRKAQPVEAGLQIPAILGILGGILALLILILLLLLFLRRRAVVKEPLLPPEDDTRDNVYYYDEEGGGEEDQDFDLSQLHRGLDARPEVTRNDVAPTLMSVPRYLPRPANPDEIGNFIDENLKAADTDPTAPPYDSLLVFDYEGSGSEAASLSSLNSSESDKDQDYDYLNEWGNRFKKLADMYGGGEDD
notes: Endogenous protein in tissue section; also called E-cadherein

binding result (PMS2): binds
B2: MLH1 (other, UniProt P40692 2-756, looked up)
chain: SFVAGVIRRLDETVVNRIAAGEVIQRPANAIKEMIENCLDAKSTSIQVIVKEGGLKLIQIQDNGTGIRKEDLDIVCERFTTSKLQSFEDLASISTYGFRGEALASISHVAHVTITTKTADGKCAYRASYSDGKLKAPPKPCAGNQGTQITVEDLFYNIATRRKALKNPSEEYGKILEVVGRYSVHNAGISFSVKKQGETVADVRTLPNASTVDNIRSIFGNAVSRELIEIGCEDKTLAFKMNGYISNANYSVKKCIFLLFINHRLVESTSLRKAIETVYAAYLPKNTHPFLYLSLEISPQNVDVNVHPTKHEVHFLHEESILERVQQHIESKLLGSNSSRMYFTQTLLPGLAGPSGEMVKSTTSLTSSSTSGSSDKVYAHQMVRTDSREQKLDAFLQPLSKPLSSQPQAIVTEDKTDISSGRARQQDEEMLELPAPAEVAAKNQSLEGDTTKGTSEMSEKRGPTSSNPRKRHREDSDVEMVEDDSRKEMTAACTPRRRIINLTSVLSLQEEINEQGHEVLREMLHNHSFVGCVNPQWALAQHQTKLYLLNTTKLSEELFYQILIYDFANFGVLRLSEPAPLFDLAMLALDSPESGWTEEDGPKEGLAEYIVEFLKKKAEMLADYFSLEIDEEGNLIGLPLLIDNYVPPLEGLPIFILRLATEVNWDEEKECFESLSKECAMFYSIRKQYISEESTLSGQQSEVPGSIPNSWKWTVEHIVYKALRSHILPPKHFTEDGNILQLANLPDLYKVFERC
notes: Endogenous protein of Hela cells in xenograft

B3: CD19 (receptor, UniProt P15391 20-556, looked up)
chain: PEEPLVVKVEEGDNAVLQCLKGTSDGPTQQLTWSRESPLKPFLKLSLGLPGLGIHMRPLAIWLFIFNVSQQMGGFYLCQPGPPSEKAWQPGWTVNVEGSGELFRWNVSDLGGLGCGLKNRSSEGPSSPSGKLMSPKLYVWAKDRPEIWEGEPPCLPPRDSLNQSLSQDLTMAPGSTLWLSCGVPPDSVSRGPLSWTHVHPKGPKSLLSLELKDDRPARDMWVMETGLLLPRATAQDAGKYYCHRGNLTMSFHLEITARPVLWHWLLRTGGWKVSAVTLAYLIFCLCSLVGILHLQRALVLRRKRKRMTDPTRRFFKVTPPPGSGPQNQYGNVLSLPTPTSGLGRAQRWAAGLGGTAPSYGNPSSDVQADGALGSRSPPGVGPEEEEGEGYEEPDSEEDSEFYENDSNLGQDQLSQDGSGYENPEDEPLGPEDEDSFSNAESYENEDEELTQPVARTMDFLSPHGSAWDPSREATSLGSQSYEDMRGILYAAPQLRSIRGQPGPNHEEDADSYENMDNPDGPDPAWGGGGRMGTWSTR
notes: Endogenous protein in tissue section
binding result [1]: binds
